# Measured values taken from PMC9539395 (2022).
# Tests used:
# Experiment in all cases: BLI
# Wuhan RBD‐8his [1] = molecular target: T1, Wuhan RBD‐8his (SARS-CoV-2, UniProt P0DTC2)
# gamma RBD [2] = molecular target: T2, gamma RBD (SARS-CoV-2, UniProt P0DTC2)
# gamma RBD [3] = molecular target: T2, gamma RBD; remark: listed apart in the source
# Wuhan RBD‐8his [4] = molecular target: T1, Wuhan RBD‐8his; remark: listed apart in the source
binder,measurement,setting,value
sACE2_(2).v2.4(NN)‐IgG1 (Fc fusion) QSTIEEQAKYFLDKFNHEAEDLFYQSSLASWNYNTNITEENVQNMNNAGDKWSAFLKEQSTTAQMYPLQEIQNLTVKLQLQALQQNGSSVLSEDKSKRLNTILNTMSTIYSTGKVCNPDNPQECLLLEPGLNEIMANSLDYNERLWAWESWRSEVGKQLRPLYEEYVVLKNEMARANHYEDYGDYWRGDYEVNGVDGYDYSRGQLIEDVEHTFEEIKPLYEHLHAYVRAKLMNAYPSYISPIGCLPAHLLGDMWGRFWTNLYSLTVPFGQKPNIDVTDAMVDQAWDAQRIFKEAEKFFVSVGLPNMTQGFWEYSMLTDPGNVQKAVCHPTAWDLGKGDFRILMCTKVTMDDFLTAHNEMGNIQYDMAYAAQPFLLRNGANEGFHEAVGEIMSLSAATPKHLKSIGLLSPDFQEDNETEINFLLKQALTIVGTLPFTYMLEKWRWMVFKGEIPKDQWMKKWWEMKREIVGVVEPVPHDETYCDPASLFHVSNDYSFIRYYTRTLYQFQFQEALCQAAKHEGPLHKCDISNSTEAGQKLFNMLRLGKSEPWTLALENVVGAKNMNVRPLLNYFEPLFTWLKDQNKNSFVGWSTDWSPYADQSIKVRISLKSALGDKAYEWNDNEMYLFRSSVAYAMRQYFLKVKNQMILFGEEDVRVANLKPRISFNFFVTAPKNVSDIIPRTEVEKAIRMSRSRINDAFRLNDNSLEFLGIQPTLG,koff,Wuhan RBD‐8his [1],0.00032 s⁻¹
same,koff,gamma RBD [2],0.00043 s⁻¹
same,Kd,gamma RBD [3],0.5 nM
same,Kd,Wuhan RBD‐8his [4],0.5 nM
